The values that follow come from article PMC3892060.

Test [1] deals with AP2μ-eCFP fusion (human (HeLa cDNA library)) (UniProt Q96CW1). Nature of the test: FRET or BRET; FACS-based FRET; 293 T cells cotransfected with Nef-YFP fusion vectors and AP2μ-CFP; 24 hours later the amount of cells scoring FRET+ measured by flow cytometry. Background: Bioluminescence resonance energy transfer reports proximity on the nanometre scale.
Another test has as its target AP2μ-eCFP fusion (UniProt Q96CW1). The test can be described thus: FACS-based FRET assay. The settings on record: 293T cells cotransfected with Nef-YFP and AP2µ-CFP, measured 24 hours later.
Setting [2] is: mean and SD of four to nine independent transfections, parent: est. 62, read off a plot.

HIV-2 Ben Nef-YFP (natural protein) yielded a percent of FRET+ cells (mean) in test [1] of under 35%.

Take SIVmac 239 Nef-YFP G2A: the response (% FRET+ cells) with AP2μ-eCFP fusion (setting [2]) was found to be 3.

As to SIVmac 239 Nef-YFP Y28A, in the test with AP2μ-eCFP fusion (setting [2]), the response (% FRET+ cells) turned out to be 26.

Regarding SIVmac 239 Nef-YFP Y28F, the response (% FRET+ cells) is 32 with AP2μ-eCFP fusion (setting [2]) and 38.1 with AP2μ-eCFP fusion (representative single FACS plot (upper row of panel A), parent: 69.8).

Regarding SIVsm FFm1 Nef-YFP (natural protein), in test [1], the percent of FRET+ cells (mean) is under 35%.
